Results from paper PMC4641729, “NurA Is Endowed with Endo- and Exonuclease Activities that Are Modulated by HerA: New Insight into Their Role in DNA-End Processing” (PLoS ONE, 2015).

B1: Sulfolobus solfataricus HerA (enzyme, UniProt Q97WG8 1-500, looked up)
chain: MIIGYVIGQATTQEALILAERPVRLGTYVVLEYDNVKALGLITNVTRGSPMLDDNMNDIEIVQRLKQFNNSIPVYTKAKVKMLCDMNNHFLMPDIPPFAGTPAREAEDEELKSIYSQDGQIRIGSLIGKNVEVKLNINSFARHLAILAATGSGKSNTVAVLSQRISELGGSVLIFDYHGEYYDSDIKNLNRIEPKLNPLYMTPREFSTLLEIRENAIIQYRILRRAFIKVTNGIREKLKEGQIPFSTLNSQFYELMKDELETQGNSDKKSSAKDEVLNKFEEFMDRYSNVIDLTSSDIIEKVKRGKVNVVSLTQLDEDSMDAVVSHYLRRILDSRKDFKRSKNSGLKFPIIAVIEEAHVFLSKNENTLTKYWASRIAREGRKFGVGLTIVSQRPKGLDENILSQMTNKIILKIIEPTDKKYILESSDNLSEDLAEQLSSLDVGEAIIIGKIVKLPAVVKIDMFEGKLLGSDPDMIGEWKKVEESEKIAKGFADFGTEIGD
notes: HerA ATPase, ORF SSO2251, Sulfolobus solfataricus strain P2; whole ORF amplified from genomic DNA with primers from the start codon to the stop codon, cloned BamHI/EcoRI into pet29a; 56 kDa as monomer; Hexamer in solution by gel filtration; Cloned at BamHI/EcoRI of pet29a, downstream of the vector's N-terminal S-tag; also called SSO2251; source: E. coli BL21-CodonPlus(DE3)-RIL, purified (heat …)
B2: Sulfolobus solfataricus NurA (enzyme, UniProt Q97WH1 1-339, looked up)
chain: MIRKIYDKLVESHNEIKNQIYNIANYLKQEIQDKVNEYWNEYVINHEQSETCKFVAIDGGSFGRPMRIGIVYAVGAESVIGDNKGVKTLSEDGQIGIFKPGNDAQERISLLMEALELSLALRDGSKGDYILMDGSLSKKIGNKVDIQQFSDEELKLIRNVDLNGIISIKDERKMRDLLMLLNQFLVSKIIEEYDGNVLWISKVSRGRDLFGTDYPDITVLELFTEKRGFSKLIIKNIDIEKISEIPEIEVLRKMEYTTFYTRLDNGKRVIRVDIVGRVDEKIVKEIMDRLSGVSIKGYPFPLLKAHMDVRFSAMDREKIIKLVGSKLHKDIEWWPSQFY
notes: NurA nuclease, ORF SSO2248, Sulfolobus solfataricus strain P2; whole ORF amplified from genomic DNA with primers from the start codon to the stop codon, cloned NdeI/BamHI into pet29a; 39 kDa as monomer; Dimer in solution by gel filtration; Cloned at NdeI with its own stop codon, so probably untagged (surmise); also called SSO2248; NurAwt; source: E. coli BL21-CodonPlus(DE3)-RIL, purified (heat …)
B3: ODN2 (single-stranded) (ssDNA)
DNA: GACGTGGGCAAAGGTTCGTCAATGGACTGACAGCTGCATGG
B4: 70mer EMI fork (70leadCy5/70 lag emi) (mixed)
DNA 1: CGTGACTTGATGTTAACCCTAACCCTAAGAATTCGGCTTAAGTGAGTGTGAGGATATCATGTACGATAGC
DNA 2: CACACTCACTTAAGCCGAATTCTTAGGGTTAGGGTTAACATCAAGTCACG
B5: 70mer bubble (70leadCy5/70 lag bubble) (mixed)
DNA 1: B4 DNA 1
DNA 2: GCTATCGTACATGATATCCTCACACTTTTTTTTTTTTTTTTTTTTGGGTTAGGGTTAACATCAAGTCACG

What was measured:
[1] = target: the molecule itself; assay: SEC; Superdex 200 10/300 GL gel filtration; 800 μg HerA and 200 μg NurA, separately or mixed, incubated at 60°C for 20 min before gel filtration; fractions analysed by SDS-PAGE
[2] = target: B1; assay: as above; conditions: both partners purified
HerA = target: T1, HerA (Sulfolobus solfataricus P2, UniProt Q97WG8 1-500); assay: EMSA; 5 mM MgCl2, 2 mM EDTA; preferred substrate; EMSA: 20 mM HEPES/NaOH pH 7.5, 3.5 mM beta-mercaptoethanol, 50 mM NaCl, 5 mM MgCl2, 2 mM EDTA, 2 pmol DNA in 10 ul, 10 min at room temperature (NurA+HerA: 20 min at 70 C, then DNA 30 min at room temperature); 5% PAGE, 0.5x TBE; conditions: protein: recombinant, cloned BamHI/EcoRI in pET29a, so a vector-derived N-terminal extension is possible, chain copies: 6
T1 sequence: B1 chain

For B1, which “stoichiometry N” value [1] is on record?
The value was 6.

Does B2 bind [2]?
Result: binds

And the “stoichiometry N” value [1]?
The value was 2.

Does B3 bind (HerA; label: 5' Cy5, single strand)?
Result: binds

Does B4 bind (HerA; label: 5' Cy5 on strand 1, 3' overhang 20 nt on strand 1)?
Result: binds

Does B5 bind (HerA; label: 5' Cy5 on strand 1, blunt ends, internal T-tract bubble)?
Result: binds
